In patent US20190338009A1 (ZEALAND PHARMA A S, published 2019):
Square brackets hold non-standard residues; d marks the D form. Aib = CC(C)(N)C(=O)O

T1: human GLP-2 receptor (hGLP2-R) (human, UniProt O95838 1-553)
T1 sequence (looked up): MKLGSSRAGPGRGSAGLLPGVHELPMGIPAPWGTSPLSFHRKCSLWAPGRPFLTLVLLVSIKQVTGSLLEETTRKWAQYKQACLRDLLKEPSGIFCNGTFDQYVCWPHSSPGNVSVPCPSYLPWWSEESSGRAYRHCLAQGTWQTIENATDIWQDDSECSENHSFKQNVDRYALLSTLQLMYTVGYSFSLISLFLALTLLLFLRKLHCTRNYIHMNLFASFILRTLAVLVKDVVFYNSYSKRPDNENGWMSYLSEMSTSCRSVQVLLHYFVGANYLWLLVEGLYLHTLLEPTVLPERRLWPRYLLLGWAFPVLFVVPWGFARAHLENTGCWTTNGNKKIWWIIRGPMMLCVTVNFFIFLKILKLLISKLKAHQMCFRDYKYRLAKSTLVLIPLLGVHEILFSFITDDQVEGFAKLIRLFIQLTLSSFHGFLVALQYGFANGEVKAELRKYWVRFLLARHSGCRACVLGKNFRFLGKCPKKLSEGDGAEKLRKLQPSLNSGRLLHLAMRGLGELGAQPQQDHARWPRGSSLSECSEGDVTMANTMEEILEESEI

B1: Teduglutide (peptide)
peptide: HGDGSFSDEMNTILDNLAARDFINWLIQTKITD
B2: Compound 3 (peptide)
peptide: H-H[Aib]EGTFTSELATILDEQAARDFIAWLIAHKITD-OH
SMILES: CC[C@H](C)[C@H](NC(=O)[C@H](CC(C)C)NC(=O)[C@H](Cc1c[nH]c2ccccc12)NC(=O)[C@H](C)NC(=O)[C@@H](NC(=O)[C@H](Cc1ccccc1)NC(=O)[C@H](CC(=O)O)NC(=O)[C@H](CCCNC(=N)N)NC(=O)[C@H](C)NC(=O)[C@H](C)NC(=O)[C@H](CCC(N)=O)NC(=O)[C@H](CCC(=O)O)NC(=O)[C@H](CC(=O)O)NC(=O)[C@H](CC(C)C)NC(=O)[C@@H](NC(=O)[C@@H](NC(=O)[C@H](C)NC(=O)[C@H](CC(C)C)NC(=O)[C@H](CCC(=O)O)NC(=O)[C@H](CO)NC(=O)[C@@H](NC(=O)[C@H](Cc1ccccc1)NC(=O)[C@@H](NC(=O)CNC(=O)[C@H](CCC(=O)O)NC(=O)C(C)(C)NC(=O)[C@@H](N)Cc1c[nH]cn1)[C@@H](C)O)[C@@H](C)O)[C@@H](C)O)[C@@H](C)CC)[C@@H](C)CC)C(=O)N[C@@H](C)C(=O)N[C@@H](Cc1c[nH]cn1)C(=O)N[C@@H](CCCCN)C(=O)N[C@H](C(=O)N[C@H](C(=O)N[C@@H](CC(=O)O)C(=O)O)[C@@H](C)O)[C@@H](C)CC
B3: Compound 4 (peptide)
peptide: H-H[Aib]EGSFTSELATILDEQAARDFIAWLIEHKITD-OH
SMILES: CC[C@H](C)[C@H](NC(=O)[C@H](Cc1ccccc1)NC(=O)[C@H](CC(=O)O)NC(=O)[C@H](CCCNC(=N)N)NC(=O)[C@H](C)NC(=O)[C@H](C)NC(=O)[C@H](CCC(N)=O)NC(=O)[C@H](CCC(=O)O)NC(=O)[C@H](CC(=O)O)NC(=O)[C@H](CC(C)C)NC(=O)[C@@H](NC(=O)[C@@H](NC(=O)[C@H](C)NC(=O)[C@H](CC(C)C)NC(=O)[C@H](CCC(=O)O)NC(=O)[C@H](CO)NC(=O)[C@@H](NC(=O)[C@H](Cc1ccccc1)NC(=O)[C@H](CO)NC(=O)CNC(=O)[C@H](CCC(=O)O)NC(=O)C(C)(C)NC(=O)[C@@H](N)Cc1c[nH]cn1)[C@@H](C)O)[C@@H](C)O)[C@@H](C)CC)C(=O)N[C@@H](C)C(=O)N[C@@H](Cc1c[nH]c2ccccc12)C(=O)N[C@@H](CC(C)C)C(=O)N[C@H](C(=O)N[C@@H](CCC(=O)O)C(=O)N[C@@H](Cc1c[nH]cn1)C(=O)N[C@@H](CCCCN)C(=O)N[C@H](C(=O)N[C@H](C(=O)N[C@@H](CC(=O)O)C(=O)O)[C@@H](C)O)[C@@H](C)CC)[C@@H](C)CC
B4: Compound 5 (peptide)
peptide: H-H[Aib]EGTFTSELATILDEQAARDFIAWLIEHKITD-OH
SMILES: CC[C@H](C)[C@H](NC(=O)[C@H](Cc1ccccc1)NC(=O)[C@H](CC(=O)O)NC(=O)[C@H](CCCNC(=N)N)NC(=O)[C@H](C)NC(=O)[C@H](C)NC(=O)[C@H](CCC(N)=O)NC(=O)[C@H](CCC(=O)O)NC(=O)[C@H](CC(=O)O)NC(=O)[C@H](CC(C)C)NC(=O)[C@@H](NC(=O)[C@@H](NC(=O)[C@H](C)NC(=O)[C@H](CC(C)C)NC(=O)[C@H](CCC(=O)O)NC(=O)[C@H](CO)NC(=O)[C@@H](NC(=O)[C@H](Cc1ccccc1)NC(=O)[C@@H](NC(=O)CNC(=O)[C@H](CCC(=O)O)NC(=O)C(C)(C)NC(=O)[C@@H](N)Cc1c[nH]cn1)[C@@H](C)O)[C@@H](C)O)[C@@H](C)O)[C@@H](C)CC)C(=O)N[C@@H](C)C(=O)N[C@@H](Cc1c[nH]c2ccccc12)C(=O)N[C@@H](CC(C)C)C(=O)N[C@H](C(=O)N[C@@H](CCC(=O)O)C(=O)N[C@@H](Cc1c[nH]cn1)C(=O)N[C@@H](CCCCN)C(=O)N[C@H](C(=O)N[C@H](C(=O)N[C@@H](CC(=O)O)C(=O)O)[C@@H](C)O)[C@@H](C)CC)[C@@H](C)CC
B5: Compound 6 (peptide)
peptide: H-H[Aib]EGSFTSELATILDEQAARDFIAWLIHHKITD-OH
SMILES: CC[C@H](C)[C@H](NC(=O)[C@H](Cc1ccccc1)NC(=O)[C@H](CC(=O)O)NC(=O)[C@H](CCCNC(=N)N)NC(=O)[C@H](C)NC(=O)[C@H](C)NC(=O)[C@H](CCC(N)=O)NC(=O)[C@H](CCC(=O)O)NC(=O)[C@H](CC(=O)O)NC(=O)[C@H](CC(C)C)NC(=O)[C@@H](NC(=O)[C@@H](NC(=O)[C@H](C)NC(=O)[C@H](CC(C)C)NC(=O)[C@H](CCC(=O)O)NC(=O)[C@H](CO)NC(=O)[C@@H](NC(=O)[C@H](Cc1ccccc1)NC(=O)[C@H](CO)NC(=O)CNC(=O)[C@H](CCC(=O)O)NC(=O)C(C)(C)NC(=O)[C@@H](N)Cc1c[nH]cn1)[C@@H](C)O)[C@@H](C)O)[C@@H](C)CC)C(=O)N[C@@H](C)C(=O)N[C@@H](Cc1c[nH]c2ccccc12)C(=O)N[C@@H](CC(C)C)C(=O)N[C@H](C(=O)N[C@@H](Cc1c[nH]cn1)C(=O)N[C@@H](Cc1c[nH]cn1)C(=O)N[C@@H](CCCCN)C(=O)N[C@H](C(=O)N[C@H](C(=O)N[C@@H](CC(=O)O)C(=O)O)[C@@H](C)O)[C@@H](C)CC)[C@@H](C)CC
B6: Compound 7 (peptide)
peptide: H-H[Aib]EGSFTSELATILDEQAARDFIAWLIYHKITD-OH
SMILES: CC[C@H](C)[C@H](NC(=O)[C@H](Cc1ccccc1)NC(=O)[C@H](CC(=O)O)NC(=O)[C@H](CCCNC(=N)N)NC(=O)[C@H](C)NC(=O)[C@H](C)NC(=O)[C@H](CCC(N)=O)NC(=O)[C@H](CCC(=O)O)NC(=O)[C@H](CC(=O)O)NC(=O)[C@H](CC(C)C)NC(=O)[C@@H](NC(=O)[C@@H](NC(=O)[C@H](C)NC(=O)[C@H](CC(C)C)NC(=O)[C@H](CCC(=O)O)NC(=O)[C@H](CO)NC(=O)[C@@H](NC(=O)[C@H](Cc1ccccc1)NC(=O)[C@H](CO)NC(=O)CNC(=O)[C@H](CCC(=O)O)NC(=O)C(C)(C)NC(=O)[C@@H](N)Cc1c[nH]cn1)[C@@H](C)O)[C@@H](C)O)[C@@H](C)CC)C(=O)N[C@@H](C)C(=O)N[C@@H](Cc1c[nH]c2ccccc12)C(=O)N[C@@H](CC(C)C)C(=O)N[C@H](C(=O)N[C@@H](Cc1ccc(O)cc1)C(=O)N[C@@H](Cc1c[nH]cn1)C(=O)N[C@@H](CCCCN)C(=O)N[C@H](C(=O)N[C@H](C(=O)N[C@@H](CC(=O)O)C(=O)O)[C@@H](C)O)[C@@H](C)CC)[C@@H](C)CC
B7: Compound 8 (peptide)
peptide: H-H[Aib]EGSFTSELATILDEQAARDFIAWLILHKITD-OH
SMILES: CC[C@H](C)[C@H](NC(=O)[C@H](Cc1ccccc1)NC(=O)[C@H](CC(=O)O)NC(=O)[C@H](CCCNC(=N)N)NC(=O)[C@H](C)NC(=O)[C@H](C)NC(=O)[C@H](CCC(N)=O)NC(=O)[C@H](CCC(=O)O)NC(=O)[C@H](CC(=O)O)NC(=O)[C@H](CC(C)C)NC(=O)[C@@H](NC(=O)[C@@H](NC(=O)[C@H](C)NC(=O)[C@H](CC(C)C)NC(=O)[C@H](CCC(=O)O)NC(=O)[C@H](CO)NC(=O)[C@@H](NC(=O)[C@H](Cc1ccccc1)NC(=O)[C@H](CO)NC(=O)CNC(=O)[C@H](CCC(=O)O)NC(=O)C(C)(C)NC(=O)[C@@H](N)Cc1c[nH]cn1)[C@@H](C)O)[C@@H](C)O)[C@@H](C)CC)C(=O)N[C@@H](C)C(=O)N[C@@H](Cc1c[nH]c2ccccc12)C(=O)N[C@@H](CC(C)C)C(=O)N[C@H](C(=O)N[C@@H](CC(C)C)C(=O)N[C@@H](Cc1c[nH]cn1)C(=O)N[C@@H](CCCCN)C(=O)N[C@H](C(=O)N[C@H](C(=O)N[C@@H](CC(=O)O)C(=O)O)[C@@H](C)O)[C@@H](C)CC)[C@@H](C)CC
B8: Compound 9 (peptide)
peptide: H-H[Aib]EGTFTDELATILDEQAARDFIAWLIAHKITD-OH
SMILES: CC[C@H](C)[C@H](NC(=O)[C@H](CC(C)C)NC(=O)[C@H](Cc1c[nH]c2ccccc12)NC(=O)[C@H](C)NC(=O)[C@@H](NC(=O)[C@H](Cc1ccccc1)NC(=O)[C@H](CC(=O)O)NC(=O)[C@H](CCCNC(=N)N)NC(=O)[C@H](C)NC(=O)[C@H](C)NC(=O)[C@H](CCC(N)=O)NC(=O)[C@H](CCC(=O)O)NC(=O)[C@H](CC(=O)O)NC(=O)[C@H](CC(C)C)NC(=O)[C@@H](NC(=O)[C@@H](NC(=O)[C@H](C)NC(=O)[C@H](CC(C)C)NC(=O)[C@H](CCC(=O)O)NC(=O)[C@H](CC(=O)O)NC(=O)[C@@H](NC(=O)[C@H](Cc1ccccc1)NC(=O)[C@@H](NC(=O)CNC(=O)[C@H](CCC(=O)O)NC(=O)C(C)(C)NC(=O)[C@@H](N)Cc1c[nH]cn1)[C@@H](C)O)[C@@H](C)O)[C@@H](C)O)[C@@H](C)CC)[C@@H](C)CC)C(=O)N[C@@H](C)C(=O)N[C@@H](Cc1c[nH]cn1)C(=O)N[C@@H](CCCCN)C(=O)N[C@H](C(=O)N[C@H](C(=O)N[C@@H](CC(=O)O)C(=O)O)[C@@H](C)O)[C@@H](C)CC

target: human glucagon-like peptide 1 receptor (GLP-1R) (human, UniProt P43220 24-463); test: cell-based or functional assay

Going from B1 to B2, the “EC50 GLP-1 (nM); cAMP AlphaScreen, HEK293 cells expressing human GLP-1R” value (shortened to “EC50 GLP-1 (nM); cAMP AlphaScreen”) falls from 39 nM to 0.0074 nM (5300-fold).

First: B3
Second: B4
The “EC50 GLP-1 (nM); cAMP AlphaScreen” value of the first is 1.5-fold higher: 0.015 nM for the first, 0.0098 nM for the second.

B5 and B6 are within 1.5-fold of each other in “EC50 GLP-1 (nM); cAMP AlphaScreen” value: 0.014 nM for the first, 0.017 nM for the second.

First: B7
Second: B8
The “EC50 GLP-1 (nM); cAMP AlphaScreen” value of the first is 3-fold higher: 0.021 nM for the first, 0.007 nM for the second.

target: T1, human GLP-2 receptor (hGLP2-R); test: cell-based or functional assay

B2 and B3 are within 1.5-fold of each other in “EC50 GLP-2 (nM); cAMP AlphaScreen, HEK293 cells expressing human GLP-2R” value (“EC50 GLP-2 (nM); cAMP AlphaScreen” below): 0.036 nM for the first, 0.044 nM for the second.

B4 and B5 are within 1.5-fold of each other in “EC50 GLP-2 (nM); cAMP AlphaScreen” value: 0.067 nM for the first, 0.047 nM for the second.

B6 and B7 are within 1.5-fold of each other in “EC50 GLP-2 (nM); cAMP AlphaScreen” value: 0.11 nM for the first, 0.084 nM for the second.

B8 was tested, and the “EC50 GLP-2 (nM); cAMP AlphaScreen” value was 0.041 nM.
